This note sets out measurements from patent publication US20150183856A1 (ABLBIO, published 2015).

Changes are numbered by the printed parent chain.

The chains are these.
B1: MLCK-1 (antibody, V domains shown)
VH: EVQLLESGGGLVQPGGSLRLSCAASGFTFSDYAMSWVRQAPGKGLEWVSWIYSDDGNKYYADSVKGRFTISRDNSKNTLYLQMNSLRAEDTAVYYCARADPPFDYWGQGTLVTVSS
VL: QSVLTQPPSASGTPGQRVTISCTGSSSNIGSNNVSWYQQLPGTAPKLLIYSDNNRPSGVPDRFSGSKSGTSASLAISGLRSEDEADYYCATWDSSLNGYVFGGGTKLTVL
notes: Human monoclonal antibody from a phage scFv library; Only the variable regions are tied to the clone; In flow cytometry it was detected with an anti-human IgG Fc-specific antibody, so it carries a human Fc; also called anti-DLL4 antibody
B2: MLCK-3 (antibody, V domains shown)
VH: B1 VH with S53Y, D55S, N57S, P101L
VL: B1 VL with T23S, S31N, N33A, S35T, N54H, A90G, S94A, N97S
notes: as for B1
B3: MLCK-2 (antibody, V domains shown)
VH: B1 VH with D54G, D55S, P101W
VL: B1 VL with N33D, S35T, S51A, N53S, N54K, A90G, S94Y, N97S, G98A
notes: Human monoclonal antibody from a phage scFv library; Only the variable regions are tied to the clone; In flow cytometry it was detected with an anti-human IgG Fc-specific antibody, so it carries a human Fc; also called MLCK-2 mAb; anti-DLL4 antibody
B4: MLCK-4 (antibody, V domains shown)
VH: EVQLLESGGGLVQPGGSLRLSCAASGFTFSNYAMSWVRQAPGKGLEWVSWIYHGGGDTYYADSVKGRFTISRDNSKNTLYLQMNSLRAEDTAVYYCARGPNYTFGKPFDYWGQGTLVTVSS
VL: QSVLTQPPSASGTPGQRVTISCRGSPSNIGNNTVYWYQQLPGTAPKLLIYSDSQRPSGVPDRFSGSKSGTSASLAISGLRSEDEADYYCGSWDYSLSAYVFGGGTKLTVL
notes: as for B1

In the first assay the target is T1, human DLL4 extracellular domain protein, His-tagged (R&D System Cat: 1506-D4/CF) (human, UniProt Q9NR61 27-522).
T1 construct: range 27-522; Bought protein; also called hDLL4-His; human DLL4-His; not shown: C-terminal histidine tag
T1 sequence (Q9NR61 27-522 limits assumed): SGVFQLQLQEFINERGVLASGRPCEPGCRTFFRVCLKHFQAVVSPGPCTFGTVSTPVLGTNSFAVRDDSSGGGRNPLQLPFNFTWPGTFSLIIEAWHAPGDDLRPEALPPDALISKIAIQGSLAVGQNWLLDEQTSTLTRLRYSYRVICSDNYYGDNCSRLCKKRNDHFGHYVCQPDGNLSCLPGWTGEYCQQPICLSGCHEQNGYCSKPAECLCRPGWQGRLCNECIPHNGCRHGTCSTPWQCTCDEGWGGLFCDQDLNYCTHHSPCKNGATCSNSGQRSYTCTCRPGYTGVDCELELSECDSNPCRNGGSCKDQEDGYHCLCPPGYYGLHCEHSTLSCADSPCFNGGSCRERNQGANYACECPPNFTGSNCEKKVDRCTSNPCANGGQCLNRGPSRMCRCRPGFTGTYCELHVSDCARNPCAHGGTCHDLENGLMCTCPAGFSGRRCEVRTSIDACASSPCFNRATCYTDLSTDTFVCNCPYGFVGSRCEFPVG
Put plainly: SPR (Biacore T200), hDLL4 immobilized on CM5 chip, antibody as analyte, 1:1 model. The method, then:
(§1) To be specific, Biacore T200 was used in SPR analysis and HBS-EP (10 mM HEPES, pH7.4, 150 mM NaCl, 3 mM EDTA, 0.15% surfactant P20) was used as a running buffer. Surface preparation was done by using a surface preparation target immobilization tool of a wizard program (condition: 25° C., 5 μl/min). A ligand, hDLL4, was diluted in 10 mM sodium acetate (pH 4.5) to a final concentration of 10 μg/ml, and then immobilized to the surface of CM5 chip by a target immobilization level for each test group. In the immobilization process, two flow cells were included as one set wherein the first flow cell was set as a blank and the second flow cell has hDLL4 immobilized to the surface thereof in the present experiment. The first flow cell acted as a reference to account for experimental variability due to nonspecific bindings and buffer effects, and in the analysis, subtracted RU values (Fc2-Fc1) were used as experimental results. Anti-DLL4 antibodies that bind to hDLL4, i.e., MLCK1, MLCK2, MLCK-3, and MLCK4, were diluted in a running buffer to a final molar concentration of 100 nM, serially diluted 5 times, and each of the 5 dilutions was analyzed. The sample to be analyzed was prepared to have high purity and high concentration, enough to be diluted more than 100 times at minimum, thereby minimizing buffer effect. All analysis was done by using a wizard program, screening duplicates for each sample and a regeneration step was included in between each analysis step, so that the standard of experiment remains constant. The experimental results were analyzed by Biaevaluation software version 4.0. At this time, to determine the RU values (Fc2-Fc1 and Fc4-Fc3), the baseline was set to zero, the value measured at a buffer injection part (analyte, 0 nM) was subtracted from a whole sensorgram. Then, the resulting RU value was analyzed by a 1:1 binding model to determine a binding affinity. The factors to be analyzed include kₐ(M⁻¹s⁻¹), kd(s⁻¹), Kₐ(1/M), and KD(M). […] Equilibrium dissociation constant KD(M) was calculated by dividing kd with kₐ (kd/kₐ).
A general note: In SPR one partner is held on a chip, and binding of the other changes the refractive index at the surface.
The Kd is a measure of binding affinity in units of concentration. Read a low Kd as tighter binding. Molecule B1 showed a dissociation constant Kd of 263 nM.

B2 yielded a Kd of 6.96 nM.

The molecule B3 displayed a dissociation constant (Kd) of 1.71 nM.

Regarding B4, binding was characterised by a dissociation constant (Kd) of 2130 nM.

For another assay, the target named is T1, human DLL4 extracellular domain …. Put plainly: ELISA solution competition: antibody premixed with DLL4-His; blocks binding to plate-coated hNotch-1-hFc. The method, then:
Each well of a 96-well microtiter plate (Nunc-Immuno Plate, NUNC, Rochester, N.Y.) was coated with 100 μl of 500 ng/ml of hNotch-1-hFc protein (R&D Systems) (diluted in PBS) at 4° C. overnight, and non-specific binding sites were blocked with BSA for 2 hours.
The anti-DLL4 antibody (purified protein) on the 96-well microtiter plate was premixed with serial dilutions of antigen protein (DLL4 antigen, 600 ng/m) at an antibody concentration ranging from 0 nM to 140 nM. The antigen/antibody mixture was incubated for 30 minutes, and then transferred to a microtiter plate precoated with the DLL4 receptor hNotch-1 protein (50 ng/well) in order to measure free antibody. Then, the plate was incubated for 2 hours and washed five times with 0.05% tween 20-containing PBS. In order to detect the DLL4 antigen bound to the plate, an HRP-conjugated His anti-mouse IgG polyclonal antibody reagent (Roche applied science) was diluted at a ratio of 1:500, and the washed microtiter plate was treated with the diluted antibody reagent, and then allowed to react at 37° C. for 1 hour. Then, color development was performed using a colorimetric substrate (3,3′,5,5′-tetramethylbenzidine; Sigma-Aldrich Co.), and the enzymatic reaction was stopped using 0.5 mol/l of sulfuric acid. The amounts of antibodies required to achieve a 50% decrease in human DLL4-His bound to plate-coated Notch 1-Fc (IC₅₀) are shown in Table 1 below.
A general note: ELISA stands for enzyme-linked immunosorbent assay.
What is called IC50 is the concentration at which inhibition is half-maximal. The low end stands for inhibition by little substance, the high end for a need for much substance. Regarding B1, the IC50 came to 1.32 nM.

Take B2: the IC50 is 0.38 nM.

Regarding B3, the IC50 came out at 0.41 nM.

For the molecule B4, the IC50 turned out to be 3.72 nM.

The target of the next assay is T2, human DLL4 stably expressed on HEK 293 cells (human, UniProt Q9NR61 27-685).
T2 construct: whole, on cells; also called human DLL4 antigen
T2 sequence (Q9NR61 27-685): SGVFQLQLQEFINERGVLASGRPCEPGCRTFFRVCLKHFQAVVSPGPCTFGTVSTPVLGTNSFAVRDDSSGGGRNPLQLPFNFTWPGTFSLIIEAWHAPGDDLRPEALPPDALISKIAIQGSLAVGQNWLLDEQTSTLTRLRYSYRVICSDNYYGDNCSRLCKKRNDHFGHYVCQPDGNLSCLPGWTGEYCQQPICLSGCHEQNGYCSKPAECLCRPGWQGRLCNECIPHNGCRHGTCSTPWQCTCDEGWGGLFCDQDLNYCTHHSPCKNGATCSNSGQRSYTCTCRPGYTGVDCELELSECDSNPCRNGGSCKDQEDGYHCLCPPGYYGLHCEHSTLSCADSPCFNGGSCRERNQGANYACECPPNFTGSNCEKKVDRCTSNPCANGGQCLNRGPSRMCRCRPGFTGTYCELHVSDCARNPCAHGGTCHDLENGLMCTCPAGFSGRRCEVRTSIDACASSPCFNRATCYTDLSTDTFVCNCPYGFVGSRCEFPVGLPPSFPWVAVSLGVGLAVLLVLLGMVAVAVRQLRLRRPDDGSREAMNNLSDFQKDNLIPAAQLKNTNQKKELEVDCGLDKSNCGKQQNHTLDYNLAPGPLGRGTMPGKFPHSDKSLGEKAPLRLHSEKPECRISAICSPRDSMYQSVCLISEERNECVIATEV
In words: flow cytometry on HEK293 cells stably expressing human DLL4, 10 ug antibody. The method, then: Specifically, human embryonic kidney cells (HEK 293) that stably express human DLL4 were prepared, and the degree of binding of the anti-DLL4 antibodies to DLL4 was measured using the prepared cells and a FACSCalibur system (BD Biosciences). The HEK293 cells that stably expressed DLL4 were dissociated, washed with PBS, adjusted to a cell number of 1×10⁵ cells/200 μl PBS, treated with 10 μg of each of the DLL4 monoclonal antibodies, and then allowed to react at room temperature for 30 minutes. After the reaction, the cells were washed with PBS and reacted with an FITC-labeled Fc-specific antibody (goat anti-human IgG FITC conjugate, Fc specific, Sigma, F9512; concentration: 2.0 mg/ml) at a concentration of 5 μl/1×10⁵ cells/200 μl PBS at 4° C. for 1 hours. After the reaction, the cells were washed with PBS and analyzed using a FACSCalibur system. A control group was treated only with an FITC-labeled Fc-specific antibody. The results of analysis of human DLL4-minoclonal antibody-FITC binding in the test group treated with each of the DLL4 monoclonal antibodies were compared with those in the control group.
A general note: A flow cytometer gives signals particle by particle.
Consider B1, for which the “degree of binding to DLL4 antigen compared to the control group” value (from here on “degree … compared to the control group”) was 47.8%.

B2: the “degree … compared to the control group” value came out at 52.9%.

On to B3, for which the “degree … compared to the control group” value came out at 59%.

In the case of B4, the “degree … compared to the control group” value is 52.5%.

The target in the next assay is T1, human DLL4 extracellular domain …. Put plainly: ELISA, plate coated with hDLL4-His 2 ug/ml, bound antibody detected with HRP-conjugated anti-Fab. The method, then:
The anti-DLL4 antibody-antigen binding affinity was evaluated using an ELISA-based binding test. A 96-well microtiter plate (Nunc-Immuno Plate, NUNC, Rochester, N.Y.) was coated with 2 μg/ml of hDLL4-His protein in PBS solution at 4° C. overnight, and non-specific binding sites were blocked with BSA (bovine serum albumin) for 2 hours. The anti-DLL4 antibody (purified protein) on the 96-well microtiter plate was transferred to a microtiter plate at an antibody concentration ranging from 0 nM to 128 nM. Then, the plate was incubated for 2 hours, after which the plate was washed five times with 0.05% tween 20-containing PBS, and in order to detect the plate-bound DLL4 antibody, an HRP-conjugated Fab polyclonal antibody reagent (Pierce) was diluted at a ratio of 1:10,000, transferred to the washed microtiter plate, and then allowed to react at 37° C. for 1 hour. After the reaction, color development was performed using a colorimetric substrate (3,3′,5,5′-tetramethylbenzidine; Sigma-Aldrich Co.). The enzymatic reaction was stopped using 0.5 mol/l of sulfuric acid, and the absorbance at 450 nm-650 nm was recorded using a microplate reader (molecular device). As a result, it was shown that the binding affinities of the antibodies for DLL4 increased in a concentration-dependent manner (FIG. 2).
What is called EC50 (read off the curve) is the midpoint of the concentration-response curve. A high value points to weaker potency. With B1, the “EC50 (read off the curve)” value is approximately 0.1 pM.

Regarding B2, the “EC50 (read off the curve)” value is approximately 0.05 pM.

Regarding B3, the “EC50 (read off the curve)” value is approximately 0.04 pM.

B4: the “EC50 (read off the curve)” value was approximately 0.2 pM.

Another assay shares this target. In words: SPR (Biacore T200), hDLL4 immobilised on a CM5 chip, antibody as analyte; the table says 'Bivalent binding'. The method, then:
as §1, with “Then, the resulting RU value was analyzed by a 1:1 binding model to determine a binding affinity.” left out
For orientation: koff means the rate constant with which the complex falls apart. Low values mean slow dissociation, high ones fast dissociation. A word on the kon: it is a measure of how fast the partners come together. B1: the Ka amounted to 3.8e+06 M⁻¹, the off-rate constant (koff) was found to be 0.0169 s⁻¹ and the kon was determined as 64100 M⁻¹ s⁻¹.

Consider B2, for which the Ka was found to be 1.44e+08 M⁻¹, the koff was determined as 0.00359 s⁻¹ and the kon came to 516000 M⁻¹ s⁻¹.

Consider B3, for which the Ka worked out at 5.86e+08 M⁻¹, the koff worked out at 0.000232 s⁻¹ and the on-rate constant (kon) stood at 136000 M⁻¹ s⁻¹.

As for B4, the Ka is 469000 M⁻¹, the koff was determined as 0.00474 s⁻¹ and the kon worked out at 2220 M⁻¹ s⁻¹.
